Assay results as given in publication PMC6817665.

Assays:
[1] = target: mixture of biotinylated K63 poly-ubiquitin chains (Ub2-7) (UniProt P0CG48); assay: BLI
[2] = target: N-terminally fluorescein-labeled CEP55 ZF mutant E460A (human) (UniProt Q53EZ4); assay: fluorescence polarisation
[3] = target: CEP55 His-NOA (His-tag version of the human CEP55 NOA fragment, residues 304–396) (human) (UniProt Q53EZ4); assay: BLI
Chain of CEP55 His-NOA (His-tag version of the human CEP55 NOA fragment, residues 304–396) (human) (Q53EZ4 304-396): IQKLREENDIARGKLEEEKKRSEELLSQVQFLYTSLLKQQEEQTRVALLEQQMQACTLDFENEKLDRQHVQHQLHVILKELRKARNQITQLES

Chain of N-terminally fluorescein-labeled CEP55 ZF mutant E460A (human) (Q53EZ4 435-464 E460A): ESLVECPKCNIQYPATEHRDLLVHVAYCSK

Strep-tag II CEP55 ZF (StrepII-tag version of CEP55 ZF peptide, residues 435–464) (from UniProt Q53EZ4-1 435-464)
Kd [1]: 2100 nM

mono-ubiquitin (from UniProt P0CG48 1-76) (natural protein)
fold weaker affinity than WT [2]: 20 fold

K63-linked tetra-ubiquitin (Ub4) (from UniProt P0CG48 1-76) (complex)
fold by which the KD is higher than that of M1-linked Ub4 [3]: 30 fold
